T1: Mammaglobin B (MGB2), recombinant (UniProt O75556 19-95)
T1 sequence: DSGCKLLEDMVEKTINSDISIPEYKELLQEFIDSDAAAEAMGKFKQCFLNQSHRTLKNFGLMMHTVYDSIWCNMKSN

B1: MAMA2 (ssDNA)
DNA: CATGCTTACCTATAGTGAACCCGGGACAGAACGTGCGCTTTGAGCTTTGAGAACTGACTCATAC
B2: MAMB1 (ssDNA)
DNA: CATGCTTACCTATAGTGAACCCAACGTCGAACTGAATCCCGTGTCCTTTGAGAACTGACTCATAC

Tests used:
[1] = molecular target: Mammaglobin A (MGB1), recombinant (UniProt Q13296 19-93); experiment: EMSA; aptamer 600 nM, protein 0-220 nM; unit implied by nM axis; EMSA: 50 mM Tris-HCl, 10 mM reduced glutathione, pH 8.0, 1 h at 37 C, 8% native PAGE; transfected-cell flow cytometry: PBS, 5 mM MgCl2, 4 C, 30 min, formaldehyde-fixed cells; details: tags: GST (stated for the SELEX protein)
Mammaglobin A (MGB1), recombinant, sequence (Q13296 19-93): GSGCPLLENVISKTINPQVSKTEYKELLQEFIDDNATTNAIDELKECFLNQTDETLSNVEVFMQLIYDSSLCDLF

[2] = molecular target: T1, Mammaglobin B (MGB2), recombinant; experiment: as above; details: tags: GST (stated for the SELEX protein)

Binder | Kd [1] | Kd [2]
B1 | 88 ± 6 nM | –
B2 | – | 95 ± 7 nM
